# Results published in US20260015399A1 (Boehringer Ingelheim, published 2026).
# *1 amine or outer side, *2 acyl side, *3 side chain or, on linkers, in order; H or OH if unused. Side-chain parts run from the residue outwards. The star is where a group is joined. C18 diacid = O=C(O)CCCCCCCCCCCCCCCCC(=O)*; γGlu = O=C(O)[C@H](CCC(=O)[*:2])N[*:1]; Isovaleryl = CC(C)CC(=O)*; Ahx = NCCCCCC(=O)O
# T1: human NPY2 receptor (human, UniProt P49146 1-381)
# T1 construct: whole, on cells; also called hNPY2-R; hNPY2R
# T1 sequence (looked up): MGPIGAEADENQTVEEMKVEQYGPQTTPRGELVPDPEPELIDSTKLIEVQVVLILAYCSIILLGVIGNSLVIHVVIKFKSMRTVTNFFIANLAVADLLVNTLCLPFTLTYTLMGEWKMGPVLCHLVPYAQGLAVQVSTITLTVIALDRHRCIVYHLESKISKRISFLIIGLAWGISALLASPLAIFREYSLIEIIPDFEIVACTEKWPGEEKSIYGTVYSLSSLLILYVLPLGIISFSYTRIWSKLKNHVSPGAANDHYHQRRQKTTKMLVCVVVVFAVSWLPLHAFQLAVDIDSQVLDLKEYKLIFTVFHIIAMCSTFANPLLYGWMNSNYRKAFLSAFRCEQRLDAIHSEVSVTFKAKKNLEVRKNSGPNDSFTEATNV
# B1: Compound 41 (peptide)
# peptide: Isovaleryl-APEK([Ahx-γGlu-C18 diacid])PEEDAEPEELQRYYTSLRHYYQWLTRQRY-NH2
# SMILES: CC(C)CC(=O)N[C@@H](C)C(=O)N1CCC[C@H]1C(=O)N[C@@H](CCC(=O)O)C(=O)N[C@@H](CCCCNC(=O)CCCCCNC(=O)CC[C@H](NC(=O)CCCCCCCCCCCCCCCCC(=O)O)C(=O)O)C(=O)N1CCC[C@H]1C(=O)N[C@@H](CCC(=O)O)C(=O)N[C@@H](CCC(=O)O)C(=O)N[C@@H](CC(=O)O)C(=O)N[C@@H](C)C(=O)N[C@@H](CCC(=O)O)C(=O)N1CCC[C@H]1C(=O)N[C@@H](CCC(=O)O)C(=O)N[C@@H](CCC(=O)O)C(=O)N[C@@H](CC(C)C)C(=O)N[C@@H](CCC(N)=O)C(=O)N[C@@H](CCCNC(=N)N)C(=O)N[C@@H](Cc1ccc(O)cc1)C(=O)N[C@@H](Cc1ccc(O)cc1)C(=O)N[C@H](C(=O)N[C@@H](CO)C(=O)N[C@@H](CC(C)C)C(=O)N[C@@H](CCCNC(=N)N)C(=O)N[C@@H](Cc1c[nH]cn1)C(=O)N[C@@H](Cc1ccc(O)cc1)C(=O)N[C@@H](Cc1ccc(O)cc1)C(=O)N[C@@H](CCC(N)=O)C(=O)N[C@@H](Cc1c[nH]c2ccccc12)C(=O)N[C@@H](CC(C)C)C(=O)N[C@H](C(=O)N[C@@H](CCCNC(=N)N)C(=O)N[C@@H](CCC(N)=O)C(=O)N[C@@H](CCCNC(=N)N)C(=O)N[C@@H](Cc1ccc(O)cc1)C(N)=O)[C@@H](C)O)[C@@H](C)O
# B2: Compound 42 (peptide)
# peptide: Isovaleryl-APEK([Ahx-γGlu-C18 diacid])PEEPATPEELQRYYVSLRHYYNWLTRQRY-NH2
# SMILES: CC(C)CC(=O)N[C@@H](C)C(=O)N1CCC[C@H]1C(=O)N[C@@H](CCC(=O)O)C(=O)N[C@@H](CCCCNC(=O)CCCCCNC(=O)CC[C@H](NC(=O)CCCCCCCCCCCCCCCCC(=O)O)C(=O)O)C(=O)N1CCC[C@H]1C(=O)N[C@@H](CCC(=O)O)C(=O)N[C@@H](CCC(=O)O)C(=O)N1CCC[C@H]1C(=O)N[C@@H](C)C(=O)N[C@H](C(=O)N1CCC[C@H]1C(=O)N[C@@H](CCC(=O)O)C(=O)N[C@@H](CCC(=O)O)C(=O)N[C@@H](CC(C)C)C(=O)N[C@@H](CCC(N)=O)C(=O)N[C@@H](CCCNC(=N)N)C(=O)N[C@@H](Cc1ccc(O)cc1)C(=O)N[C@@H](Cc1ccc(O)cc1)C(=O)N[C@H](C(=O)N[C@@H](CO)C(=O)N[C@@H](CC(C)C)C(=O)N[C@@H](CCCNC(=N)N)C(=O)N[C@@H](Cc1c[nH]cn1)C(=O)N[C@@H](Cc1ccc(O)cc1)C(=O)N[C@@H](Cc1ccc(O)cc1)C(=O)N[C@@H](CC(N)=O)C(=O)N[C@@H](Cc1c[nH]c2ccccc12)C(=O)N[C@@H](CC(C)C)C(=O)N[C@H](C(=O)N[C@@H](CCCNC(=N)N)C(=O)N[C@@H](CCC(N)=O)C(=O)N[C@@H](CCCNC(=N)N)C(=O)N[C@@H](Cc1ccc(O)cc1)C(N)=O)[C@@H](C)O)C(C)C)[C@@H](C)O
# B3: Compound 48 (peptide)
# peptide: Isovaleryl-APAK([Ahx-γGlu-C18 diacid])PEEAATPEELQRYYISLRHYYNWLTRQRY-NH2
# SMILES: CC[C@H](C)[C@H](NC(=O)[C@H](Cc1ccc(O)cc1)NC(=O)[C@H](Cc1ccc(O)cc1)NC(=O)[C@H](CCCNC(=N)N)NC(=O)[C@H](CCC(N)=O)NC(=O)[C@H](CC(C)C)NC(=O)[C@H](CCC(=O)O)NC(=O)[C@H](CCC(=O)O)NC(=O)[C@@H]1CCCN1C(=O)[C@@H](NC(=O)[C@H](C)NC(=O)[C@H](C)NC(=O)[C@H](CCC(=O)O)NC(=O)[C@H](CCC(=O)O)NC(=O)[C@@H]1CCCN1C(=O)[C@H](CCCCNC(=O)CCCCCNC(=O)CC[C@H](NC(=O)CCCCCCCCCCCCCCCCC(=O)O)C(=O)O)NC(=O)[C@H](C)NC(=O)[C@@H]1CCCN1C(=O)[C@H](C)NC(=O)CC(C)C)[C@@H](C)O)C(=O)N[C@@H](CO)C(=O)N[C@@H](CC(C)C)C(=O)N[C@@H](CCCNC(=N)N)C(=O)N[C@@H](Cc1c[nH]cn1)C(=O)N[C@@H](Cc1ccc(O)cc1)C(=O)N[C@@H](Cc1ccc(O)cc1)C(=O)N[C@@H](CC(N)=O)C(=O)N[C@@H](Cc1c[nH]c2ccccc12)C(=O)N[C@@H](CC(C)C)C(=O)N[C@H](C(=O)N[C@@H](CCCNC(=N)N)C(=O)N[C@@H](CCC(N)=O)C(=O)N[C@@H](CCCNC(=N)N)C(=O)N[C@@H](Cc1ccc(O)cc1)C(N)=O)[C@@H](C)O
# B4: Compound 43 (peptide)
# peptide: Isovaleryl-APAK([Ahx-γGlu-C18 diacid])PEAAAEPEELQRYYVSLRHYYNWLTRQRY-NH2
# SMILES: CC(C)CC(=O)N[C@@H](C)C(=O)N1CCC[C@H]1C(=O)N[C@@H](C)C(=O)N[C@@H](CCCCNC(=O)CCCCCNC(=O)CC[C@H](NC(=O)CCCCCCCCCCCCCCCCC(=O)O)C(=O)O)C(=O)N1CCC[C@H]1C(=O)N[C@@H](CCC(=O)O)C(=O)N[C@@H](C)C(=O)N[C@@H](C)C(=O)N[C@@H](C)C(=O)N[C@@H](CCC(=O)O)C(=O)N1CCC[C@H]1C(=O)N[C@@H](CCC(=O)O)C(=O)N[C@@H](CCC(=O)O)C(=O)N[C@@H](CC(C)C)C(=O)N[C@@H](CCC(N)=O)C(=O)N[C@@H](CCCNC(=N)N)C(=O)N[C@@H](Cc1ccc(O)cc1)C(=O)N[C@@H](Cc1ccc(O)cc1)C(=O)N[C@H](C(=O)N[C@@H](CO)C(=O)N[C@@H](CC(C)C)C(=O)N[C@@H](CCCNC(=N)N)C(=O)N[C@@H](Cc1c[nH]cn1)C(=O)N[C@@H](Cc1ccc(O)cc1)C(=O)N[C@@H](Cc1ccc(O)cc1)C(=O)N[C@@H](CC(N)=O)C(=O)N[C@@H](Cc1c[nH]c2ccccc12)C(=O)N[C@@H](CC(C)C)C(=O)N[C@H](C(=O)N[C@@H](CCCNC(=N)N)C(=O)N[C@@H](CCC(N)=O)C(=O)N[C@@H](CCCNC(=N)N)C(=O)N[C@@H](Cc1ccc(O)cc1)C(N)=O)[C@@H](C)O)C(C)C
# B5: Compound 44 (peptide)
# peptide: Isovaleryl-APEK([Ahx-γGlu-C18 diacid])PEEDATPEELQRYYVGLRHYYNWLTRQRY-NH2
# SMILES: CC(C)CC(=O)N[C@@H](C)C(=O)N1CCC[C@H]1C(=O)N[C@@H](CCC(=O)O)C(=O)N[C@@H](CCCCNC(=O)CCCCCNC(=O)CC[C@H](NC(=O)CCCCCCCCCCCCCCCCC(=O)O)C(=O)O)C(=O)N1CCC[C@H]1C(=O)N[C@@H](CCC(=O)O)C(=O)N[C@@H](CCC(=O)O)C(=O)N[C@@H](CC(=O)O)C(=O)N[C@@H](C)C(=O)N[C@H](C(=O)N1CCC[C@H]1C(=O)N[C@@H](CCC(=O)O)C(=O)N[C@@H](CCC(=O)O)C(=O)N[C@@H](CC(C)C)C(=O)N[C@@H](CCC(N)=O)C(=O)N[C@@H](CCCNC(=N)N)C(=O)N[C@@H](Cc1ccc(O)cc1)C(=O)N[C@@H](Cc1ccc(O)cc1)C(=O)N[C@H](C(=O)NCC(=O)N[C@@H](CC(C)C)C(=O)N[C@@H](CCCNC(=N)N)C(=O)N[C@@H](Cc1c[nH]cn1)C(=O)N[C@@H](Cc1ccc(O)cc1)C(=O)N[C@@H](Cc1ccc(O)cc1)C(=O)N[C@@H](CC(N)=O)C(=O)N[C@@H](Cc1c[nH]c2ccccc12)C(=O)N[C@@H](CC(C)C)C(=O)N[C@H](C(=O)N[C@@H](CCCNC(=N)N)C(=O)N[C@@H](CCC(N)=O)C(=O)N[C@@H](CCCNC(=N)N)C(=O)N[C@@H](Cc1ccc(O)cc1)C(N)=O)[C@@H](C)O)C(C)C)[C@@H](C)O
# B6: Compound 45 (peptide)
# peptide: Isovaleryl-APEK([Ahx-γGlu-C18 diacid])PEEIATPEELQRYYVSLRHYYNWLTRQRY-NH2
# SMILES: CC[C@H](C)[C@H](NC(=O)[C@H](CCC(=O)O)NC(=O)[C@H](CCC(=O)O)NC(=O)[C@@H]1CCCN1C(=O)[C@H](CCCCNC(=O)CCCCCNC(=O)CC[C@H](NC(=O)CCCCCCCCCCCCCCCCC(=O)O)C(=O)O)NC(=O)[C@H](CCC(=O)O)NC(=O)[C@@H]1CCCN1C(=O)[C@H](C)NC(=O)CC(C)C)C(=O)N[C@@H](C)C(=O)N[C@H](C(=O)N1CCC[C@H]1C(=O)N[C@@H](CCC(=O)O)C(=O)N[C@@H](CCC(=O)O)C(=O)N[C@@H](CC(C)C)C(=O)N[C@@H](CCC(N)=O)C(=O)N[C@@H](CCCNC(=N)N)C(=O)N[C@@H](Cc1ccc(O)cc1)C(=O)N[C@@H](Cc1ccc(O)cc1)C(=O)N[C@H](C(=O)N[C@@H](CO)C(=O)N[C@@H](CC(C)C)C(=O)N[C@@H](CCCNC(=N)N)C(=O)N[C@@H](Cc1c[nH]cn1)C(=O)N[C@@H](Cc1ccc(O)cc1)C(=O)N[C@@H](Cc1ccc(O)cc1)C(=O)N[C@@H](CC(N)=O)C(=O)N[C@@H](Cc1c[nH]c2ccccc12)C(=O)N[C@@H](CC(C)C)C(=O)N[C@H](C(=O)N[C@@H](CCCNC(=N)N)C(=O)N[C@@H](CCC(N)=O)C(=O)N[C@@H](CCCNC(=N)N)C(=O)N[C@@H](Cc1ccc(O)cc1)C(N)=O)[C@@H](C)O)C(C)C)[C@@H](C)O
# Target: T1, human NPY2 receptor
# Test: RLB: displacement of 125I-PYY(1-36) from hNPY2R membranes
row,Ki,Binder
1,19.8 nM,B1
2,1.98 nM,B2
3,1.54 nM,B3
4,2.49 nM,B4
5,5.86 nM,B5
6,6.17 nM,B6
